Laboratory results from article PMC13544220, “Glycemic and bodyweight effects of GIPR coding variation reflect differences in surface expression and intrinsic functional impairment” (Science Advances, 2026).

Columns and labels:
[1] = test system: wild-type and variant SNAP-GIPR in Gipr-/- mouse islets; experiment: Insulin secretion from Gipr-/- mouse islets transduced with GIPR adenoviruses; type: cell-based; conditions: Gipr-/- islets, 11 mM glucose, 100 nM GIP
Method: (§1) Isolated islets used for insulin secretion assays were treated in 1.5-ml microcentrifuge tubes. Eight-ten islets were used per well with two-three technical replicates per condition. […] At the end of the treatment, supernatants containing the secreted insulin or glucagon were collected, centrifuged at 1000g for 5 min, and transferred to fresh tubes. […] The lysates were sonicated 3× for 10 s in a water bath and centrifuged at 10,000g for 10 min, and the supernatants were collected. The samples were stored at −20°C until the insulin or glucagon concentrations were determined using an Insulin Ultra-Sensitive HTRF Assay kit (62IN2PEG, Revvity) or an HTRF Glucagon Detection Kit (62CGLPEG, Revvity) respectively, according to the manufacturer’s instructions. GraphPad Prism 9.0 was used for the generation of the standard curve and sample concentration extrapolation. The total insulin or glucagon content was calculated by adding the secreted insulin to the insulin content of the lysates, and secretion was reported as the percentage release of total. The percent secretion of islets treated with agonist was normalized to that of islets treated with vehicle and reported as a fold change.

[2] = test system: wild-type and variant SNAP-GIPR in Gipr-/- mouse islets; experiment: Glucagon secretion from Gipr-/- mouse islets transduced with GIPR adenoviruses; type: cell-based; conditions: Gipr-/- islets, 0.5 mM glucose; each variant vs wild type
Method: as §1

[3] = test system: wild-type and variant SNAP-GIPR in wild-type mouse islets; experiment: Insulin secretion from wild-type mouse islets transduced with GIPR adenoviruses; type: cell-based; conditions: 11 mM glucose, particularly E354Q and R190Q, not significant
Method: as §1, with “The samples were stored at −20°C until the insulin or glucagon concentrations were determined using an Insulin Ultra-Sensitive HTRF Assay kit (62IN2PEG, Revvity) or an HTRF Glucagon Detection Kit (62CGLPEG, Revvity) respectively, according to the manufacturer’s instructions.” left out

[4] = test system: wild-type and variant SNAP-GIPR; experiment: Single-concentration GIP cAMP response by HTRF in INS-1 cells; type: cell-based, human; conditions: Fig S3E, mean
Method: All variants were tested in parallel on each occasion to control for transfection efficiency differences between experiments.

[5] = test system: wild-type and variant SNAP-GIPR; experiment: Surface SNAP-GIPR expression (SNAP-tag labelling) in AD293 cells; type: cell-based, human; conditions: for AD293 Surface: Fig S3E, mean; for Surface SNAP-GIPR expression: sheet Fig 1C;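 for all read-outs here: scaled to the experimental average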
How it was run: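 Read-out: whole-cell fluorescence of surface-only SNAP label (Alexa Fluor 647, 500 nM, 10 min, RT), wide-field 20X, several FOVs per well. Flat-field corrected, phase-contrast masked, nontransfected-well signal subtracted; normalized to experiment mean or wild-type.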

[6] = test system: wild-type and variant SNAP-GIPR; experiment: Constitutive and agonist-mediated internalization, reversible SNAP-tag labelling, INS-1 cells; type: cell-based, human; parameters: key to Internalisation, GIP-only / Internalisation, Vehicle / Internalisation, +GIP: % internalization: residual fluorescence after Mesna vs pre-Mesna; conditions: Mean
How it was run: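 Percentage internalization is read as the fraction of specific SNAP fluorescence that survives Mesna stripping, compared with the image taken before Mesna. Wells are imaged in TNE buffer at pH 8.6 and again after 10 min.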

CC[C@H](C)[C@H](NC(=O)[C@H](CO)NC(=O)[C@H](Cc1ccc(O)cc1)NC(=O)[C@H](CC(=O)O)NC(=O)[C@H](CO)NC(=O)[C@@H](NC(=O)[C@H](Cc1ccccc1)NC(=O)[C@@H](NC(=O)CNC(=O)[C@H](CCC(=O)O)NC(=O)[C@H](C)NC(=O)[C@@H](N)Cc1ccc(O)cc1)[C@@H](C)O)[C@@H](C)CC)C(=O)N[C@@H](C)C(=O)N[C@@H](CCSC)C(=O)N[C@@H](CC(=O)O)C(=O)N[C@@H](CCCCN)C(=O)N[C@H](C(=O)N[C@@H](Cc1c[nH]cn1)C(=O)N[C@@H](CCC(N)=O)C(=O)N[C@@H](CCC(N)=O)C(=O)N[C@@H](CC(=O)O)C(=O)N[C@@H](Cc1ccccc1)C(=O)N[C@H](C(=O)N[C@@H](CC(N)=O)C(=O)N[C@@H](Cc1c[nH]c2ccccc12)C(=O)N[C@@H](CC(C)C)C(=O)N[C@@H](CC(C)C)C(=O)N[C@@H](C)C(=O)N[C@@H](CCC(N)=O)C(=O)N[C@@H](CCCCN)C(=O)NCC(=O)N[C@@H](CCCCN)C(=O)N[C@@H](CCCCN)C(=O)N[C@@H](CC(N)=O)C(=O)N[C@@H](CC(=O)O)C(=O)N[C@@H](Cc1c[nH]c2ccccc12)C(=O)N[C@@H](CCCCN)C(=O)N[C@@H](Cc1c[nH]cn1)C(=O)N[C@@H](CC(N)=O)C(=O)N[C@H](C(=O)N[C@H](C(=O)N[C@@H](CCC(N)=O)C(=O)O)[C@@H](C)O)[C@@H](C)CC)C(C)C)[C@@H](C)CC [GIP, glucose-dependent insulinotropic polypeptide, reference compound]
GIP-induced insulin secretion ([1]; 30 min, E354Q vs wild-type): blunted insulinotropic response | GIP-induced insulin secretion ([1]; R101H and E288G, not significant): apparent reduced GIP-induced insulin secretion | GIP-induced insulin secretion ([1]; R190Q, statistically significant): reduced GIP-induced insulin secretion | glucagon release [2]: apparent but nonstatistically significant reduction in glucagon release | GIP-induced insulin secretion [3]: tendency toward reduced responses to GIP stimulation

B1: WT (protein, UniProt P48546 22-466, looked up)
Gastric inhibitory …: RAETGSKGQTAGELYQRWERYRRECQETLAAAEPPSGLACNGSFDMYVCWDYAAPNATARASCPWYLPWHHHVAAGFVLRQCGSDGQWGLWRDHTQCENPEKNEAFLDQRLILERLQVMYTVGYSLSLATLLLALLILSLFRRLHCTRNYIHINLFTSFMLRAAAILSRDRLLPRPGPYLGDQALALWNQALAACRTAQIVTQYCVGANYTWLLVEGVYLHSLLVLVGGSEEGHFRYYLLLGWGAPALFVIPWVIVRYLYENTQCWERNEVKAIWWIIRTPILMTILINFLIFIRILGILLSKLRTRQMRCRDYRLRLARSTLTLVPLLGVHEVVFAPVTEEQARGALRFAKLGFEIFLSSFQGFLVSVLYCFINKEVQSEIRRGWHHCRLRRSLGEEQRQLPERAFRALPSGSGPGEVPTSRGLSSGTLPGPGNEASRELESYC
INS-1 cAMP (100 nM) [4]: 1.606 | AD293 Surface ([5]; column repeated, paired with cAMP 100 nM): 1.574 | AD293 Surface ([5]; paired with cAMP 100 pM): 1.574 | Surface SNAP-GIPR expression ([5]; replicate 1): 1.413 | Surface SNAP-GIPR expression ([5]; replicate 2): 1.272 | Surface SNAP-GIPR expression ([5]; replicate 3): 1.88 | Surface SNAP-GIPR expression ([5]; replicate 4): 1.444 | Surface SNAP-GIPR expression ([5]; replicate 5): 1.509 | Surface SNAP-GIPR expression ([5]; replicate 6): 1.344 | Surface SNAP-GIPR expression ([5]; replicate 7): 1.891 | Surface SNAP-GIPR expression ([5]; replicate 8): 1.028 | Surface SNAP-GIPR expression ([5]; replicate 9): 1.591 | Surface SNAP-GIPR expression ([5]; replicate 10): 1.397 | Surface SNAP-GIPR expression ([5]; replicate 11): 1.544 | Surface SNAP-GIPR expression ([5]; replicate 12): 1.527 | Surface SNAP-GIPR expression ([5]; replicate 13): 1.575 | Surface SNAP-GIPR expression ([5]; replicate 14): 1.588 | Surface SNAP-GIPR expression ([5]; replicate 15): 1.562 | Surface SNAP-GIPR expression ([5]; replicate 16): 1.285 | Surface SNAP-GIPR expression ([5]; replicate 17): 1.371 | Surface SNAP-GIPR expression ([5]; replicate 18): 1.43 | Surface SNAP-GIPR expression ([5]; replicate 19): 1.701 | Surface SNAP-GIPR expression ([5]; replicate 20): 1.486 | Surface SNAP-GIPR expression ([5]; replicate 21): 1.598 | Surface SNAP-GIPR expression ([5]; replicate 22): 1.477 | Surface SNAP-GIPR expression ([5]; replicate 23): 1.449 | Surface SNAP-GIPR expression ([5]; replicate 24): 1.623 | Surface SNAP-GIPR expression ([5]; replicate 25): 1.241 | Surface SNAP-GIPR expression ([5]; replicate 26): 1.004 | Surface SNAP-GIPR expression ([5]; replicate 27): 2.237 | Surface SNAP-GIPR expression ([5]; replicate 28): 2.105 | Surface SNAP-GIPR expression ([5]; replicate 29): 1.748 | Surface SNAP-GIPR expression ([5]; replicate 30): 1.831 | Surface SNAP-GIPR expression ([5]; replicate 31): 1.807 | Surface SNAP-GIPR expression ([5]; replicate 32): 1.314 | Surface SNAP-GIPR expression ([5]; replicate 33): 1.406 | Surface SNAP-GIPR expression ([5]; replicate 34): 1.597 | Surface SNAP-GIPR expression ([5]; replicate 35): 1.369 | Surface SNAP-GIPR expression ([5]; replicate 36): 1.658 | Surface SNAP-GIPR expression ([5]; replicate 37): 2.437 | Surface SNAP-GIPR expression ([5]; replicate 38): 2.543 | Surface SNAP-GIPR expression ([5]; replicate 39): 1.55 | Surface SNAP-GIPR expression ([5]; replicate 40): 1.34 | Surface SNAP-GIPR expression ([5]; replicate 41): 1.346 | +GIP internalisation (100 nM) ([6]; Fig 4G, GIP 100 nM): 0.7446 | GIP-specific internalisation (100 nM) ([6]; Fig 4G, GIP 100 nM): 0.2047 | Constitutive internalisation (100 nM) ([6]; Fig 4G): 0.5399 | Internalisation, +GIP ([6]; Fig S4C, INS-1): 51.1244 | Internalisation, GIP-only ([6]; Fig S4C, INS-1): 14.2697 | Internalisation, Vehicle ([6]; Fig S4C, INS-1): 36.8547
